Source: patent publication US20130129707A1, “ANTIMICROBIAL ACTIVITY ENHANCING AGENT” (priority 2010, published 2013)

B1: angiogenin-2: bovine angiogenin-2, about 17 kDa component of peak α in Example 5 (SEQ ID NO: 7) (protein, listed as Bos taurus)
chain: QNDAYRGFLRKHYDPSPTGHDDRYCNTMMERRNMTRPCKDTNTFIHGNSDDIRAVCDDRNGEPYRNGLRRSRSPFQVTTCRHRGGSPRPPCRYRAFRANRVIVIRCRDGFPIHLEENFIPPRP
B2: LF: bovine lactoferrin (Morinaga Milk Industry) diluted with deionized water; 2 mg/mL in Samples 1 and 11 (protein, UniProt P24627 20-708, looked up)
Lactotransferrin: APRKNVRWCTISQPEWFKCRRWQWRMKKLGAPSITCVRRAFALECIRAIAEKKADAVTLDGGMVFEAGRDPYKLRPVAAEIYGTKESPQTHYYAVAVVKKGSNFQLDQLQGRKSCHTGLGRSAGWIIPMGILRPYLSWTESLEPLQGAVAKFFSASCVPCIDRQAYPNLCQLCKGEGENQCACSSREPYFGYSGAFKCLQDGAGDVAFVKETTVFENLPEKADRDQYELLCLNNSRAPVDAFKECHLAQVPSHAVVARSVDGKEDLIWKLLSKAQEKFGKNKSRSFQLFGSPPGQRDLLFKDSALGFLRIPSKVDSALYLGSRYLTTLKNLRETAEEVKARYTRVVWCAVGPEEQKKCQQWSQQSGQNVTCATASTTDDCIVLVLKGEADALNLDGGYIYTAGKCGLVPVLAENRKSSKHSSLDCVLRPTEGYLAVAVVKKANEGLTWNSLKDKKSCHTAVDRTAGWNIPMGLIVNQTGSCAFDEFFSQSCAPGADPKSRLCALCAGDDQGLDKCVPNSKEKYYGYTGAFRCLAEDVGDVAFVKNDTVWENTNGESTADWAKNLNREDFRLLCLDGTRKPVTEAQSCHLAVAPNHAVVSRSDRAAHVKQVLLHQQALFGKNGKNCPDKFCLFKSETKNLLFNDNTECLAKLGGRPTYEEYLGTEYVTAIANLKKCSTSPLLEACAFLTR
B3: Sample 14: Angiogenin-1 (32 μg/mL), bovine, about 15 kDa, separated by gel filtration HPLC in Example 5 (SEQ ID NO: 4) (protein, listed as Bos taurus)
chain: AQDDYRYIHFLTQHYDAKPKGRNDEYCFNMMKNRRLTRPCKDRNTFIHGNKNDIKAICEDRNGQPYRGDLRISKSEFQITICKHKGGSSRPPCRYGATEDSRVIVVGCENGLPVHFDESFITPRH

Assays:
Type in all cases: cell-based
[1] = tested on: Escherichia coli K-12 strain (NBRC 3301); assay: Antimicrobial activity enhancement test (colony count, CFU); details: culture 17 hours
Protocol: In the antimicrobial activity enhancement test, antimicrobial activity of a sample obtained by mixing the antimicrobial activity enhancing agent of the present invention with lactoferrin or a lactoferrin hydrolysate was measured. As a control, antimicrobial activity of a sample containing only lactoferrin or a lactoferrin hydrolysate was also measured.
By using 1% Bacto peptone medium, Escherichia coli K-12 strain was inoculated into the medium contained in a polystyrene tube with a 5 ml capacity, and precultured in an incubator at 37° C. for 6 hours to obtain a cell suspension for the test. The precultured Escherichia coli was added to a 96-well plate at a cell density of 10^6 cells/mL together with each of the aforementioned samples, and cultured at 37° C. for a predetermined time. After the culture for the predetermined time, the culture medium containing Escherichia coli was serially diluted with 0.85% physiological saline, and plated on an agar medium, and culture was performed at 37° C. for a predetermined time. Then, number of colonies (colony forming units:CFU) was measured.
Antimicrobial activity of each sample was evaluated on the basis of the value of CFU. Degree of enhancement of the antimicrobial activity was calculated by comparison of the numbers of Escherichia coli (CFU) that remained after the test. For example, if CFU of Sample 1 is 100, and CFU of Sample 2 is 10 after the test, the antimicrobial activity of Sample 2 can be determined to be 10 times that of Sample 1. […]
By using 1% Bacto peptone medium (Becton Dickinson), the Escherichia coli K-12 strain (NBRC 3301) was inoculated to the medium contained in a polystyrene tube with a 5 ml capacity at a density of 10^6 CFU/mL, and precultured in an incubator at 37° C. for 6 hours to obtain a cell suspension for the test.
The cell suspension for the test was added to a 96-well plate at a cell density of 10^6 CFU/mL together with each of the aforementioned samples, and culture was performed at 37° C. for 17 hours.
After the culture for 17 hours, the culture medium containing Escherichia coli was serially diluted with 0.85% physiological saline, and plated on an agar medium (Rapid Media RM-SPC, Morinaga Milk Industry), and then culture was performed at 37° C. for 16 hours. Then, number of the formed colonies (CFU: Colony Forming Unit) was measured to evaluate the antimicrobial activity of each sample.

[2] = tested on: Staphylococcus aureus JCM 2151; assay: Minimum inhibitory concentration (MIC), absorbance at 630 nm; details: Test Example 6; MIC as lactoferrin concentration; 17 hours, 37° C.
Protocol: (§1) By using 1% Bacto peptone medium (Becton Dickinson), each of Escherichia coli 0111, Cronobacter sakazaki ATCC 12868, Salmonella enteritidis IID 604, Klebsiella pneumoniae JCM 1662T, Pseudomonas aeruginosa MMI 603, Staphylococcus aureus JCM 2151 and Staphylococcus epidermidis JCM 2414T was inoculated to the medium contained in a polystyrene tube with a 5 ml capacity at a density of 10^6 cells/mL, and precultured in an incubator at 37° C. for 6 hours to obtain a cell suspension for the test.
(§2) Each of the cell suspensions for the test was added to a 96-well plate at a cell density of 10^6 cells/mL together with each of the aforementioned samples, and culture was performed at 37° C. for 17 hours.
(§3) After the culture for 17 hours, absorbance of the medium was measured at 630 nm using a microplate reader (Corona Electric). In addition, each bacterium was cultured only with the medium as a control, besides the culture using Samples 16 to 30.
(§4) By using 1% Bacto peptone medium (Becton Dickinson), each of Escherichia coli 0111, Cronobacter sakazaki ATCC 12868, Klebsiella pneumoniae JCM 1662T, Pseudomonas aeruginosa MMI 603, and Staphylococcus aureus JCM 2151 was inoculated to the medium contained in a polystyrene tube with a 5 ml capacity at a density of 10^6 cells/mL, and precultured in an incubator at 37° C. for 6 hours to obtain a cell suspension for the test. In a similar manner, by using the PYG medium (1% Bacto peptone, 0.05% yeast extract (Becton Dickinson), 1% glucose (Wako Pure Chemical Industries)), Streptococcus mutans JCM 5705T was inoculated to the medium contained in a polystyrene tube with a 5 ml capacity at a density of 10^6 cells/mL, and precultured in an incubator at 37° C. for 6 hours to obtain a cell suspension for the test. Further, by using the Sabouraud medium (1% Bacto peptone, 2% glucose), Candida albicans TIMM1768 was inoculated to the medium contained in a polystyrene tube with a 5 ml capacity at a density of 10^6 cells/mL, and precultured in an incubator at 37° C. for 6 hours to obtain a cell suspension for the test.
(§5) After the culture for 17 hours, absorbance of the medium was measured at 630 nm using a microplate reader (Corona Electric). In addition, each bacterium was cultured only with the medium as a control, besides the culture using Samples 31 to 41.

[3] = tested on: Klebsiella pneumoniae JCM 1662T; assay: as above; details: Test Example 6; MIC as lactoferrin concentration; 17 hours, 37° C.
Protocol: as §1, §2, §3, §4, §5

[4] = tested on: Escherichia coli O111; assay: as above; details: Test Example 6; MIC as lactoferrin concentration; 17 hours, 37° C.
Protocol: as §1, §2, §3, §4, §5

[5] = tested on: Cronobacter sakazaki ATCC 12868; assay: as above; details: Test Example 6; MIC as lactoferrin concentration; 17 hours, 37° C.
Protocol: as §1, §2, §3, §4, §5

[6] = tested on: Pseudomonas aeruginosa MMI 603; assay: as above; details: Test Example 6; MIC as lactoferrin concentration; 17 hours, 37° C.
Protocol: as §1, §2, §3, §4, §5

[7] = tested on: Streptococcus mutans JCM 5705T; assay: as above; details: Test Example 6; MIC as lactoferrin concentration; PYG medium; 17 hours, 37° C.
Protocol: (§6) In a similar manner, by using the PYG medium (1% Bacto peptone, 0.05% yeast extract (Becton Dickinson), 1% glucose (Wako Pure Chemical Industries)), Streptococcus mutans JCM 5705T was inoculated to the medium contained in a polystyrene tube with a 5 ml capacity at a density of 10^6 cells/mL, and precultured in an incubator at 37° C. for 6 hours to obtain a cell suspension for the test. Further, by using the Sabouraud medium (1% Bacto peptone, 2% glucose), Candida albicans TIMM1768 was inoculated to the medium contained in a polystyrene tube with a 5 ml capacity at a density of 10^6 cells/mL, and precultured in an incubator at 37° C. for 6 hours to obtain a cell suspension for the test.
as §2
(§7) After the culture for 17 hours, absorbance of the medium was measured at 630 nm using a microplate reader (Corona Electric). In addition, each bacterium was cultured only with the medium as a control, besides the culture using Samples 16 to 30. […]
(§8) After the culture for 17 hours, absorbance of the medium was measured at 630 nm using a microplate reader (Corona Electric). […]

[8] = tested on: Candida albicans TIMM1768; assay: as above; details: Test Example 6; MIC as lactoferrin concentration; Sabouraud medium; 17 hours, 37° C.
Protocol: as §6, §2, §7, §8

[9] = tested on: Staphylococcus epidermidis JCM 2414T; assay: as above; details: Test Example 6; MIC as lactoferrin concentration; 17 hours, 37° C.
Protocol: as §1, §2, §3

[10] = tested on: Salmonella enteritidis IID 604; assay: as above; details: Test Example 6; MIC as lactoferrin concentration; 17 hours, 37° C.
Protocol: as §1, §2, §3

Molecule	antimicrobial activity (in words) ([1]; Test Example 5)	MIC [2]	MIC [3]	MIC [4]	MIC [5]	MIC [6]	MIC [7]	MIC [8]	Change of Log10 CFU relative to control ([1]; Test Example 2)	Survival rate based on control ([1]; Test Example 2)	Change of Log10 CFU relative to control ([1]; Test Example 5)	Survival rate based on control ([1]; Test Example 5)	MIC [9]	MIC [10]
B1	do not have antimicrobial activity													
B2		500 µg/mL	8000 µg/mL	2000 µg/mL	8000 µg/mL	8000 µg/mL	>8000 µg/mL	1000 µg/mL	−2.472	0.337%	−2.657	0.220%	1000 µg/mL	4000 µg/mL
B3	do not have antimicrobial activity										0.160	144.654%		
